Experimental findings from patent US20220241413A1, “COMBINATION THERAPIES USING CD-38 ANTIBODIES” (Takeda Pharmaceutical Company Limited, priority 2019, published 2022) are described below.

A short description of this data set: AB79-1501 study, AB79 monotherapy SC in RRMM: safety. The data set is classed as in vivo. The source says:
Patients eligible for study enrollment are refractory or intolerant to at least one PI and at least one IMiD, and have received either ≥3 prior therapies or ≥2 prior therapies, if one of those therapies included a combination of a PI and an IMiD. In the phase 1b dose-escalation part of the study, patients who were previously exposed to an anti-CD38 agent are eligible; however, this criterion is not required. In the phase 2a expansion part of the study, patients were also refractory to at least one anti-CD38 monoclonal therapy at any time during prior treatment. The study was designed to evaluate the safety and tolerability of subcutaneously administered AB79 monotherapy in patients with RRMM, to determine the recommended phase 2 dose (RP2D), and to provide a preliminary assessment of its single-agent activity against RRMM, including in patients who are refractory to daratumumab. Parameters such as safety, tolerability, pharmacokinetics (PK), pharmacodynamics, and disease response were assessed.
Clinical safety data includes that from patients who received a single dose and from patients who received multiple doses in multiple cycles followed by treatment-free periods. Based on the mechanism of action (MOA) of AB79 and the subcutaneous (SC) route of administration, potential adverse events (AEs) included systemic reaction (e.g., cytokine release syndrome (CRS) and hypersensitivity reaction), hematologic effects (e.g., reduced platelet, lymphocyte, neutrophil, and RBC counts), infections (e.g., bacterial and/or viral infections secondary to immune suppression), and injection site reaction (i.e., erythema or tenderness).

Setting [1] is: monotherapy SC, total population, 45-600 mg.

For “AB79: anti-CD38 monoclonal IgG1 antibody; heavy chain SEQ ID NO:11, light chain SEQ ID NO:12”, under “SC, dosed up to 600 mg”, the “infusion-related reactions (IRRs)” value is recorded as “have not been observed”. In addition, the “patients with AEs that led to study discontinuation” value (both reported as not related to AB79) is given as “Two”. Also, for the setting “monotherapy SC”, the injection site reactions is listed as less than 0.25%, the “share of AEs overall that were Grade 1 or 2” value came out at 55% and the systemic reactions entry was “no systemic reactions”. Besides, under setting [1], the “TEAE regardless of causality: abdominal distension” value was determined as 12%, the “TEAE regardless of causality: anemia” value is 15%, the “TEAE regardless of causality: back pain” value was 12% and the “TEAE regardless of causality: cough” value was determined as 10%. Besides, under setting [1], the “TEAE regardless of causality: diarrhea” value is recorded as 17%, the “TEAE regardless of causality: fatigue” value was found to be 27%, the “TEAE regardless of causality: headache” value amounted to 15% and the “TEAE regardless of causality: hypertension” value came to 12%. Further, under setting [1], the “TEAE regardless of causality: insomnia” value came to 22%, the “TEAE regardless of causality: nausea” value is 17%, the “TEAE regardless of causality: neutropenia” value came out at 12% and the “TEAE regardless of causality: pneumonia” value is 10%. Further, the “TEAE regardless of causality: upper respiratory infection” value under setting [1] is 27%. Also, for the setting “monotherapy cohorts”, the “dose-limiting toxicities (DLTs)” value is “no DLTs” and the “maximum tolerated dose (MTD)” value is “has not been identified”. For the same substance, the “drug-related SAEs (Diverticulitis)” value (patient with past medical history of diverticulitis) is “One”.
